Experiment [1] deals with human NKG2A/CD94 on the cell surface (CHOk1-hNKG2A/CD94 stable cell line) (human) (UniProt P26715). The experiment is described as follows: FACS on CHOK1-hNKG2A/CD94 cells.
Experiment [2] has the same target. The experiment in a line: FACS on CHOK1-hNKG2A/CD94 cells, Alexa 488 secondary antibody.
For experiment [3] the target is unchanged. The experiment in a line: FACS blocking assay: HLA-E-PE binding to CHOk1-hNKG2A/CD94 cells in the presence of the antibody.

B1: M15-5 (antibody, V domains shown)
VH: QVQLVQSGAEVKKPGASVKVSCKASGFNIQNTYIHWVKQAPGQGLEWIGKIDPANADTKYAPTFQGRATITADTSTNTAYLELSSLRSEDTAVYYCARYRDYLFYYALGYWGQGTTVTVSS
VL: DIVMTQSPLSLPVTPGEPASISCRSSKSLLHSNANTYLYWYLQKPGQSPQLLIYRMSNLASGVPDRFSGSGSGTDFTLKISRVEAEDVGVYYCMQHLEYPYTFGQGTKLEIK
For orientation: EC50 (read off the curve) means the concentration that produces a half-maximal response. A low value points to greater potency. B1 displayed a concentration giving a half-maximal response (EC50 (read off the curve)) in experiment [1] of 1 nM. That is a single-digit nanomolar value.

B2: Mab033 (antibody, V domains shown)
VH: EVQLQQSVAEFVRPGASVRLSCTASGFNIENTYIHWLKQRPEQGLEWIGRIDPANGDTQYDPKFQGKATLTAATSSNTAYLQLSGLTSEDTAIYYCTRYGDYLFYYSLKYWGQGTSVTVSS
VL: DIVMTQAAPSVSVTPGESVSISCRSSKSLLHSNGNTYLYWFLQRPGQSPQLLIYRMSNLASGVPDRFSGSGSGTAFTLRISRVEAEDVGVYYCMQHLESPYTFGGGTKLEIK
Take B2: in experiment [2], the EC50 (read off the curve) stood at 0.8 nM. In addition, in experiment [3], the IC50 (read off the curve) is 1 nM.

B3: Mab031 (antibody, V domains shown)
VH: EVQLQQSVAELVRPGASVRLSCTGSGFNIQNTYIHWVKQRPEQGLEWIGRIDPANGDTKYAPKFQGKATITADTSSNTAYLQLSSLTSEDTAIYYCTRYGNYLYYYSLDYWGQGTSVTVSS
VL: DIVMTQAAPSVPVTPGESVSISCRSSKSLLHSNGNTYLYWFLQRPGQSPQLLIYRMSNLASGVPDRFSGSGSGTAFTLRISRVEAEDMGVYYCMQHLEYPYTFGGGTKLEIK
Molecule B3 had a 50% effective concentration (EC50 (read off the curve)) in experiment [2] of 0.8 nM. The IC50 (read off the curve) in experiment [3] was determined as 1 nM.

B4: Mab032 (antibody, V domains shown)
VH: EVQLQQSVAELVRPGASVRLSCTGSGFNIENTYMHWLKQRPEQGLEWIGRIDPADGDTQYAPKFQGKATITTDTSSNTAYLQLSSLTSEDTAIYYCARYGNYLFYYSMDYWGQGTSVTVSS
VL: DIVMTQAAPSVPVTPGESVSISCRSSKSLLHSNGNTYLYWFLQRPGQSPQLLIYRMSNLASGVPDRFSGSGSATAFTLRISRVEAEDVGIYYCMQHLEYPYTFGGGTKLEIK
In experiment [2], B4 showed an EC50 (read off the curve) of 0.8 nM. For the same molecule, in experiment [3], the IC50 (read off the curve) worked out at 1 nM.

B5: Mpb416 (antibody, V domains shown)
VH: QVQLQQSVAELVRPGASVKLSCTASGFNIQNTYIHWVKQRPEQGLEWIGKIDPANGDTKYAPTFQGKATITADTSSNTAYLQLSSLTPEDTAIYYCARYRDYLFYYALGYWGQGTSVTVSS
VL: DIVMTQSAPSVPVTPGESVSISCRSSKSLLHSNGNTYLYWFLQRPGQSPQLLIYRMSNLASGVPDRFSGSGSGTAFTLRISRVEAEDVGVYYCMQHLEYPYTFGGGTKLEIK
In turn, B5 gave a concentration giving a half-maximal response (EC50 (read off the curve)) in experiment [2] of 0.7 nM. This counts as sub-nanomolar.

B6: M15 (antibody, V domains shown)
VH: QVQLQQSVAELVRPGASVKLSCTASGFNIQNTYIHWVKQRPEQGLEWIGKIDPANADTKYAPTFQGKATITADTSSNTAYLQLSSLTPEDTAIYYCARYRDYLFYYALGYWGQGTSVTVSS
VL: DIVMTQSAPSVPVTPGESVSISCRSSKSLLHSNANTYLYWFLQRPGQSPQLLIYRMSNLASGVPDRFSGSGSGTAFTLRISRVEAEDVGVYYCMQHLEYPYTFGGGTKLEIK
In experiment [1], B6 had a half-maximal effective concentration (EC50 (read off the curve)) of 0.8 nM.

The values are drawn from patent US20220259306A1.
